According to the RNAGym collection of RNA variant scans (doi:10.1021/acssynbio.7b00057):

B1: Pistol ribozyme (parent)
chain: GGGUCGUUGUUCCAUAAUCGCGUGGAUAUGGCACGCAAGUUUCUACCGGGCACCGUAAAUGUCCGACUGGAGCCGUUCGGGCGGCUAUAAACAGACCUCAGGCCCGAAGCGUGGCGGCACCUGCCGCCGGUGGUAAAAAAGAUCGGAAGAGCACACGUCU

Variants of: B1
Assay: aptazyme ON/OFF ratio, guanine; higher = stronger switching; co-transcriptional cleavage with and without guanine

Variant	aptazyme ON/OFF ratio
U7C G9A U10A U11A C12G C13U	1.19
U7C U8G G9A U11C	1.04
U7G U10G U11C C13G	1.07
U7G G9U U10C U11C C12G C13A	1.17
U7C G9A U10G U11G C12A	1.16
U7G U8A U10A U11C C12G C13U	1.18
U7A U8G G9U U10C U11C C12G C13U	1.46
U7C G9U U10A C12U C13G	1.11
U8A C12A	1.3
U7C U8C G9U C12U C13A	1.06
U7G U8A G9C U10C U11C C12G	1.03
U7A G9A U10G C13G	1.17
U7C U8C G9U U11C C12G	1.22
U7A U8A G9A U11A C13G	1.11
U7A U8C U11G C13G	1.15
U7G U11A C12A C13G	1.14
U7A G9U U10A U11C C13U	1.02
U7C G9U U10G U11G C12G C13G	1.12
G9U U11C	2.53
U7A U8C G9A U10C U11C C13G	1
U7G U8G U10A U11C C13A	1.27

Variant	aptazyme ON/OFF ratio
U7G U8G G9A U10A U11C C12U C13A	1.08
U7C U10G U11C C12G C13U	1.28
U7C G9U U10G U11C C13A	1.28
U7C G9A U10G C12U	1.33
U7C U8C G9A U11A C12G C13A	1.1
U8A U11G C13G	1.04
U7C U8C U10C U11C C12G C13A	1.1
U8C G9C U10A C12A C13A	1.09
U7A U8G G9U U11A C12U C13G	1.26
U7C U8G G9U U10C U11G C12G C13U	1.08
U7C G9A U10A U11C	1.09
U7C G9C U10A U11G C13A	1.09
U7A U8C G9C U10A U11C C12A C13A	1.15
U7A U8A U10C C12A C13G	1.08
U7C U8A G9U U10A C13G	1.05
U7A G9U U10C U11A C12A	1.15
U7A U8G G9U U10A U11C	1.06
U7G U8A G9A U11A C12U C13G	1.04
U7C U8C G9A U11A C12G	1.21
U7G U8G G9U C12U C13A	1.23
U7A U8C G9C U10A C12G C13G	1.14

Variant	aptazyme ON/OFF ratio
U8C G9U U10C U11C C12G C13A	1.06
U7A G9A U10A U11A C12U C13A	1.19
U7A G9A U11A C12G C13U	1.28
U7C U8C G9U U10C U11G C12G C13U	1.08
U7C U8A G9C U11A C13G	1.06
U7G U8A U10C U11A	2.3
U7C G9A U11G C12A C13A	1.22
U7A U8C G9A U10A U11G C13A	1.12
U7C U8C U11A C12G C13A	1.13
U8A U10C U11A C12A C13U	1.3
U7G U8A G9C U10G U11G C13A	1.19
U7A U8C G9C U10A U11A C12G C13A	1.05
U7G U8A G9U U10G U11C C12G C13U	1.21
U7A U8C U10C U11G C12A C13A	1.33
U7A U8C G9U U11C C12U C13A	1.12
U8G G9U U11G C12U	1.27
U7G U8A G9U U10G U11C C12U C13G	1.17
U7A G9U U10C U11C C12A C13G	1.06
U7C U8A G9U U10C U11A C12A C13A	1.08
G9A U10G U11A C12U C13G	1.2
G9U U10C U11C C12U C13U	1.18

Variant	aptazyme ON/OFF ratio
U7G U8A G9U U10C U11C C13G	1.02
U8C G9A U10G C13U	1.26
U7G U8G G9U U10A U11G C12U C13U	1.08
U8G U10G C13U	1.11
U7C U8A G9U U11C C12A C13G	1.07
U7C U8C G9C U11A C12U	1.14
U7A U8A G9U U10G U11C C12U C13U	1.28
U7G U8A G9A U10A U11G C12U C13A	1.07
U8G G9A C12A C13A	1.25
U7C U8C G9U U10C C13U	3.5
G9U U10G C12A C13A	0.843
U8C G9C U10C C12A C13U	1.03
U7C U8A G9C C13G	1.04
U8C G9C U10G U11A C12A C13U	1.1
U7C U8C G9U C12U	1.61
U8A G9A U10A U11C C12U C13G	1.17
U7C U10A U11A C12U C13G	1.16
U8G G9U U10C C12U C13A	1.11
U7A U8A G9C U10A U11G C13U	1.24
U7G U8C G9C U10A U11C C12U C13U	1.09
U7C U8C G9C U10A U11G C12G C13U	1.1
